Article PMC7857489, “Degradation of MinD oscillator complexes by Escherichia coli ClpXP” (The Journal of Biological Chemistry, 2020)
Blank lines part the entries; values can stand above or below the binder they belong to.

Legend:
MinD(R3E) = molecular target: T1, MinD(R3E) (E. coli, UniProt P0AEZ3 1-270, R3E); experiment: 90° light scatter; MinC (4 μM) and MinD or MinD(R3E) (8 μM) in 20 mM MES pH 6.5, 100 mM KCl, 10 mM MgCl2; after 5 min ATP added alone or with ClpX (0.75 μM), ClpX(E185Q) (0.75 μM), ClpP (0.9 μM) or ClpX and ClpP, with an ATP-regenerating system; monitored for 30 min more; settings: both partners purified
T1 construct: MinD of Escherichia coli with Arg 3 changed to glutamate by site-directed mutagenesis; Same construct as m1 apart from R3E; source: E. coli BL21 (λDE3), overexpressed from a plasmid (pEt-MinD(R3E)), purified
T1 sequence (looked up): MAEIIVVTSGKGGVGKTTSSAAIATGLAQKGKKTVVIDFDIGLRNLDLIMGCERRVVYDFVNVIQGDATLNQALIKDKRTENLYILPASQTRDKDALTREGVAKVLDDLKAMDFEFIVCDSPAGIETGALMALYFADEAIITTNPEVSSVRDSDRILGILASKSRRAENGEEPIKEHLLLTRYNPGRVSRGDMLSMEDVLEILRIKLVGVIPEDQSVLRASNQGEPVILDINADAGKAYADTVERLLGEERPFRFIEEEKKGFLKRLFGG

ClpX = molecular target: T2, ClpX (E. coli, UniProt P0A6H1 1-424); experiment: negative-stain transmission electron microscopy; MinC (4 μM), MinD or MinD(R3E) (8 μM), ATP (8 mM), with or without ClpXP, or ClpXP with ATP alone, in copolymer assembly buffer; carbon/formvar grids, fixed with glutaraldehyde, stained with uranyl acetate; settings: both partners purified
T2 construct: ClpX, AAA+ unfoldase of Escherichia coli; concentrations are reported as ClpX hexamers; Purified as a native protein by earlier published methods; also called wildtype ClpX; source: E. coli BL21 (λDE3), overexpressed from a plasmid, purified as native protein

binding result (MinD(R3E)): binds
B1: MinC (natural protein, E. coli, UniProt P18196 1-231, looked up)
chain: MSNTPIELKGSSFTLSVVHLHEAEPKVIHQALEDKIAQAPAFLKHAPVVLNVSALEDPVNWSAMHKAVSATGLRVIGVSGCKDAQLKAEIEKMGLPILTEGKEKAPRPAPTPQAPAQNTTPVTKTRLIDTPVRSGQRIYAPQCDLIVTSHVSAGAELIADGNIHVYGMMRGRALAGASGDRETQIFCTNLMAELVSIAGEYWLSDQIPAEFYGKAARLQLVENALTVQPLN
notes: concentrations are reported as MinC dimers; Purified as a native protein by earlier published methods; source: E. coli BL21 (λDE3), overexpressed from a plasmid (pEt-MinC), purified as native protein

binding result (ClpX): binds
B2: ClpP (enzyme)
chain: not shown
notes: ClpP, serine protease of Escherichia coli; concentrations are reported as ClpP tetradecamers; Purified as a native protein by earlier published methods; source: E. coli BL21 (λDE3), overexpressed from a plasmid, purified as native protein; copies: 14
